Biological target: the molecule itself
Test: native MS

B1: Rv2607 from Mycobacterium tuberculosis H37Rv, amino-terminal 6x-histidine tag fusion protein (enzyme)
chain: MDDDAQMVAIDKDQLARMRGEYGPEKDGCGDLDFDWLDDGWLTLLRRWLNDAQRAGVSEPNAMVLATVADGKPVTRSVLCKILDESGVAFFTSYTSAKGEQLAVTPYASATFPWYQLGRQAHVQGPVSKVSTEEIFTYWSMRPRGAQLGAWASQQSRPVGSRAQLDNQLAEVTRRFADQDQIPVPPGWGGYRIAPEIVEFWQGRENRMHNRIRVANGRLERLQP
notes: also called PNPOx; pyridoxine 5'-phosphate oxidase; not shown: His6, N-terminal, kept
- stoichiometry N: 2

Source: article PMC3215729, “Rv2607 from Mycobacterium tuberculosis Is a Pyridoxine 5′-Phosphate Oxidase with Unusual Substrate Specificity” (PLoS ONE, 2011)
